Test results: patent US20230331827A1 (MAXION THERAPEUTICS, published 2023)

Biological target: human cMET (human, UniProt P08581 25-932)
Assay: phage TRF on cMET

Sequence of human cMET (P08581 25-932 limits assumed): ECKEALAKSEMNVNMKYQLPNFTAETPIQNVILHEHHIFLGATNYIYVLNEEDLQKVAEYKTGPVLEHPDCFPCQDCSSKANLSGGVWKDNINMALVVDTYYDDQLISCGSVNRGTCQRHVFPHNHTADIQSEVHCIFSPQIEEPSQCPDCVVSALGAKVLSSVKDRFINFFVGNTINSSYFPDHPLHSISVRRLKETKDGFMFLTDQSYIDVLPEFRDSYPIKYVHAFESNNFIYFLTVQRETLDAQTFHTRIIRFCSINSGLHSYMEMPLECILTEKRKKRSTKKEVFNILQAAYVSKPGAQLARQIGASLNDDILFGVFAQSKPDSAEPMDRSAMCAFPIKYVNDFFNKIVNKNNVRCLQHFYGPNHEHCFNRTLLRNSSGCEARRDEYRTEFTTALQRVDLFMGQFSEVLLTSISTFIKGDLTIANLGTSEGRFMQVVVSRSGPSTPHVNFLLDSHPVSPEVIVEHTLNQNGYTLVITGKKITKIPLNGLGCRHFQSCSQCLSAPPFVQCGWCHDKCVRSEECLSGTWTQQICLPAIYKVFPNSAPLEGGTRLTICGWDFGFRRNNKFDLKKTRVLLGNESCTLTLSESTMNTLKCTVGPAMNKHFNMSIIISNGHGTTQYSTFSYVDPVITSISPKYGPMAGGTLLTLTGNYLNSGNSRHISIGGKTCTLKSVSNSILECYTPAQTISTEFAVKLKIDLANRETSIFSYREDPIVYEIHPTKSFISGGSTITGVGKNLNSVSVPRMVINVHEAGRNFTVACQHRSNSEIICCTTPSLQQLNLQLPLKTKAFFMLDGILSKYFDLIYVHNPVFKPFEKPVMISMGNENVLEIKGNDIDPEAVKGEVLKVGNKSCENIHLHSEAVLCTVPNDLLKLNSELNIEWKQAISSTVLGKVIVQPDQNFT

B1: KB_A12_cMET_H08 (scFv, V domains shown)
VH: EVQLVESGGGLVRPGGSLRLSCAASGFTFSSYAMSWVRQAPGKGLEWVSAISGSGGSTYYADSVKGRFTISRDNTKNSLYLQMTSLRADDTAFYYCVKDFGPGYGTGWFDYWGPGTLVTVSS
VL: AVNWYQQLPGKAPKLLIYAAGRCQTGRSGTGRCKQDSDCLAGCVCGPNGFCGANSGVSDRFSAAKSGTSASLAINGLRSEDEADYYCAAWDDSLNGYVFGTGTKLTVLG
Binder B1 has a TRF signal of 6730.
